From patent US20110143993A1, “ENDOTHELIAL BASEMENT MEMBRANE TARGETING PEPTIDE LIGANDS” (The Brigham and Women's Hospital, Inc., priority 2009, published 2011)
No end group written: not given here.

B1: synthetic peptide modeled after phage clone C-11 (…-Am) (peptide)
peptide: KLWVLPKGGGC-NH2
B2: synthetic peptide modeled after phage clone A-8 (KVWSLPQ with C-terminal GGGC linker, amidated) (peptide)
peptide: KVWSLPQGGGC-NH2
B3: synthetic peptide modeled after phage clone C-10 (KIWKLPQ with C-terminal GGGC linker, amidated) (peptide)
peptide: KIWKLPQGGGC-NH2
B4: synthetic peptide modeled after phage clone A-9 (KIFVWPY with C-terminal GGGC linker, amidated) (peptide)
peptide: KIFVWPYGGGC-NH2
B5: phage clone C-11 (KLWVLPK displayed on pIII of M13 phage) (peptide, not shown: large carriers)
peptide: KLWVLPK

How the values were obtained:
[1] = biological target: Matrigel growth factor reduced LDEV free (basement membrane extract rich in collagen IV and laminin); test: competition of phage-displayed peptide against synthetic peptide on Matrigel
[2] = biological target: Matrigel growth factor reduced LDEV free (basement membrane extract rich in collagen IV and laminin); test: competition ELISA: synthetic peptide (10^-5-10^-10 M) against 10^9 pfu cognate phage clone on Matrigel-coated plate, anti-M13/ABTS
[3] = biological target: human collagen IV (human) (UniProt P02462); test: phage titer count of eluted phage, input 10^12/mL p.f.u., against random library R0, n=3

Binder	IC50 [1]	IC50 [2]	fold binding compared to the library (R0), phage titer [3]
B1	114 nM	117 nM	–
B2	–	1200 nM	–
B3	–	917 nM	–
B4	–	551 nM	–
B5	–	–	900 fold
